The record followed here is paper PMC8041747.

The assay concerns the target full-length 13-lined ground squirrel TRPV1 (13-lined ground squirrel (Ictidomys tridecemlineatus)). Nature of the assay: cryo-EM structure; purified sqTRPV1 in 150 mM NaCl, 20 mM Tris pH 8.0, 1 mM βME, 0.01% GDN; apo, with 50 μM RTX or with 300 μM capsaicin.

“full-length 13-lined ground squirrel TRPV1 (natural protein)” came in with a stoichiometry N of 4 subunits.

Broadly, the stoichiometry N is a count of units in the complex or per binding partner.
